Experimental data: PMC4090178, “Structural and Biochemical Characterization of Human PR70 in Isolation and in Complex with the Scaffolding Subunit of Protein Phosphatase 2A” (PLoS ONE, 2014)

Experiments:
Conditions in all cases: both partners purified
PR70 (105–575) = molecular target: T1, PR70 (105–575) (human, UniProt Q9Y5P8 105-575); assay: ITC; B''-constructs at 20–40 µM in the cell titrated with 200–300 µM Aα or Aβ constructs; 15°C; 20 mM Tris pH 7.5, 200 mM NaCl, 2 mM CaCl2; 1:1 binding model
T1 construct: PR70 (B''β), regulatory B'' subunit of PP2A, human, product of PPP2R3B; source: E. coli BL21(DE3), purified (IMAC, TEV cleavage, gel filtration); not shown: His tag, N-terminal, cleaved
T1 sequence (looked up): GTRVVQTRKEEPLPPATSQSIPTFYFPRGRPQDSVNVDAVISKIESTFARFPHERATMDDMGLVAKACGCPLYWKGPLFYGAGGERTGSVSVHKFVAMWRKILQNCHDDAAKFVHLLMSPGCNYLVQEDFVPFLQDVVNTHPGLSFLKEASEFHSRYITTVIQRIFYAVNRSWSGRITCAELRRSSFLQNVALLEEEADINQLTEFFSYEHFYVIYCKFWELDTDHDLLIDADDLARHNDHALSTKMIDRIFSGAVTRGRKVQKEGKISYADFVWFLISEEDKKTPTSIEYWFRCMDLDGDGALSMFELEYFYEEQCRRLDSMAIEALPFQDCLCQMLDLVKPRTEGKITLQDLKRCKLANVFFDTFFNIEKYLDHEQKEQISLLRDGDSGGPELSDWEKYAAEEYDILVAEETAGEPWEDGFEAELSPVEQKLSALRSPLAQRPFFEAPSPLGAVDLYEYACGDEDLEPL

PR70 (130–504) = molecular target: T2, PR70 (130–504) (human, UniProt Q9Y5P8 130-504); assay: as above
T2 construct: PR70 (B''β), regulatory B'' subunit of PP2A, human, product of PPP2R3B; residues 130–504; source: E. coli BL21(DE3), purified (IMAC, TEV cleavage, gel filtration); not shown: His tag, N-terminal, cleaved
T2 sequence (looked up): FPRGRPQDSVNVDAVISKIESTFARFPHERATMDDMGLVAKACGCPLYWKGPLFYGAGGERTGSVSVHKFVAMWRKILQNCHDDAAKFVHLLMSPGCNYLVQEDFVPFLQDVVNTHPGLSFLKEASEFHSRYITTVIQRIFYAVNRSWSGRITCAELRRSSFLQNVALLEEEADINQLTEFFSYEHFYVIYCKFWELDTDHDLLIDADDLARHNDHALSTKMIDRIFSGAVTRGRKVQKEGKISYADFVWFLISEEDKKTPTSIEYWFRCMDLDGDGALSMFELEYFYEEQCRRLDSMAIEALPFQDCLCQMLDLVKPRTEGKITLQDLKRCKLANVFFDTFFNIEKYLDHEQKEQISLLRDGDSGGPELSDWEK

PR70 (25–575) = molecular target: T3, PR70 (25–575) (human, UniProt Q9Y5P8 25-575); assay: as above
T3 construct: PR70 (B''β), regulatory B'' subunit of PP2A, human, product of PPP2R3B; also called B''/PR70; source: E. coli BL21(DE3), purified (IMAC, TEV cleavage, gel filtration); not shown: His tag, N-terminal, cleaved
T3 sequence (looked up): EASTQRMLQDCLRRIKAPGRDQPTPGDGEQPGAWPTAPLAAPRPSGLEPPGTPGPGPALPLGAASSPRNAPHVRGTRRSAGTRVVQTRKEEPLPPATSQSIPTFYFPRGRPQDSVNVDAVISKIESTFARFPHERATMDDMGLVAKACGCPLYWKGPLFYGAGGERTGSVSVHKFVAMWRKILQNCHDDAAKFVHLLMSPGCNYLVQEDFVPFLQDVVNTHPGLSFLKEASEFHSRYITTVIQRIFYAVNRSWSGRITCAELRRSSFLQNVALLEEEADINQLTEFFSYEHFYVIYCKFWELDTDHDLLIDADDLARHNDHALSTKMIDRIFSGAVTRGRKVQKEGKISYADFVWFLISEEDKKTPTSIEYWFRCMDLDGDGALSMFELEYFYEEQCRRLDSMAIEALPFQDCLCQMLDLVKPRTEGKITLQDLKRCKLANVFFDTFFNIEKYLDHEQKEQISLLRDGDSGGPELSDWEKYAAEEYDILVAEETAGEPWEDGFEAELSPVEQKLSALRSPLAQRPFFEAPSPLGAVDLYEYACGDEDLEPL

[1] = molecular target: T4, PR70 core fragment (residues 130–483) (human, UniProt Q9Y5P8 130-483); assay: as above
T4 construct: PR70 (B''β), regulatory B'' subunit of PP2A, human, product of PPP2R3B; The crystal (PDB 4MEW) was of the selenomethionine-labelled protein alone; the model holds residues 134–481; also called PR70 core domain; source: E. coli BL21(DE3), purified (IMAC, TEV cleavage, gel filtration); not shown: His tag, N-terminal, cleaved
T4 sequence (looked up): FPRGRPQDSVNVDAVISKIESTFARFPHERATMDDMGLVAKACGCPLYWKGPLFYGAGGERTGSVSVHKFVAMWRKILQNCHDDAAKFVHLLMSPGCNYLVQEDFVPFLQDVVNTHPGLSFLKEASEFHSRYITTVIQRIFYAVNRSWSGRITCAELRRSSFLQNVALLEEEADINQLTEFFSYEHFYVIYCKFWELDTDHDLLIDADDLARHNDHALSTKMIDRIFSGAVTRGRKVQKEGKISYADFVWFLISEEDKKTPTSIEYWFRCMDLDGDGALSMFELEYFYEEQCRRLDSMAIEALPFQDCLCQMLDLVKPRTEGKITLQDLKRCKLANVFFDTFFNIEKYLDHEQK

A α (HEAT1–15) = molecular target: T5, A α (HEAT1–15) (UniProt P30153 1-589); assay: SAXS; complex purified on Superdex 200 in 20 mM Tris pH 7.5, 20 mM NaCl, 2 mM CaCl2, 0.5 mM TCEP, 1% glycerol at 15°C just prior to SAXS; 1.5 mg/ml
T5 construct: PP2A scaffolding subunit A, α isoform, product of PPP2R1A; HEAT repeats 1–15; calculated molecular weight 65.3 kD; also called full length A-subunit; scaffolding A subunit; source: E. coli BL21(DE3), purified (IMAC, TEV cleavage, gel filtration); not shown: His tag, N-terminal, cleaved

Binder	Kd (PR70 (105–575)) [nM]	dH (PR70 (105–575)) [kcal/mol]	stoichiometry N (PR70 (105–575))	Kd (PR70 (130–504)) [nM]	Kd (PR70 (25–575)) [nM]	dH (PR70 (25–575)) [kcal/mol]	stoichiometry N (PR70 (25–575))	Kd [1] [nM]	binding result (A α (HEAT1–15))
A α (HEAT1–8) (domain or fragment, UniProt P30153 1-321, looked up, PP2A scaffolding subunit A, α isoform, product of PPP2R1A; HEAT repeats 1–8 (C-terminal repeats deleted); also called construct spanning HEAT repeats 1–8; source: E. coli BL21(DE3), purified (IMAC, TEV cleavage, gel filtration); not shown: His tag, N-terminal, cleaved) MAAADGDDSLYPIAVLIDELRNEDVQLRLNSIKKLSTIALALGVERTRSELLPFLTDTIYDEDEVLLALAEQLGTFTTLVGGPEYVHCLLPPLESLATVEETVVRDKAVESLRAISHEHSPSDLEAHFVPLVKRLAGGDWFTSRTSACGLFSVCYPRVSSAVKAELRQYFRNLCSDDTPMVRRAAASKLGEFAKVLELDNVKSEIIPMFSNLASDEQDSVRLLAVEACVNIAQLLPQEDLEALVMPTLRQAAEDKSWRVRYMVADKFTELQKAVGPEITKTDLVPAFQNLMKDCEAEVRAAASHKVKEFCENLSADCRENV	158 ± 22	-20.3 ± 0.2	0.99 ± 0.01	> 100000	223 ± 21	-19.1 ± 0.4	0.93 ± 0.02	> 100000	
PR70 (130–575) (domain or fragment, human, UniProt Q9Y5P8 130-575, looked up, PR70 (B''β), regulatory B'' subunit of PP2A, human, product of PPP2R3B; Used only for SAXS of the complex with the A-subunit; source: E. coli BL21(DE3), purified (IMAC, TEV cleavage, gel filtration); not shown: His tag, N-terminal, cleaved) FPRGRPQDSVNVDAVISKIESTFARFPHERATMDDMGLVAKACGCPLYWKGPLFYGAGGERTGSVSVHKFVAMWRKILQNCHDDAAKFVHLLMSPGCNYLVQEDFVPFLQDVVNTHPGLSFLKEASEFHSRYITTVIQRIFYAVNRSWSGRITCAELRRSSFLQNVALLEEEADINQLTEFFSYEHFYVIYCKFWELDTDHDLLIDADDLARHNDHALSTKMIDRIFSGAVTRGRKVQKEGKISYADFVWFLISEEDKKTPTSIEYWFRCMDLDGDGALSMFELEYFYEEQCRRLDSMAIEALPFQDCLCQMLDLVKPRTEGKITLQDLKRCKLANVFFDTFFNIEKYLDHEQKEQISLLRDGDSGGPELSDWEKYAAEEYDILVAEETAGEPWEDGFEAELSPVEQKLSALRSPLAQRPFFEAPSPLGAVDLYEYACGDEDLEPL									binds
